Measurements from patent publication US20220265772A1, “USES OF DAN FAMILY BMP ANTAGONISTS FOR INHIBITING OCULAR NEOVASCULARIZATION AND TREATING OCULAR CONDITIONS” (9636137 Canada Inc., priority 2019, published 2022).
Where two headings read alike, the source gives them in different places.

What was measured:
[1] = system: pathological retinal neovascularization; assay: Oxygen-induced retinopathy (OIR); format: in vivo, mouse
Experimental: C57BL/6J mouse pups at postnatal day (P)7 and their fostering mothers (CD1, Charles River) were submitted to 75% oxygen in oxycycler chamber for 5 days. Pups were then returned to normoxia at P12 and administered 100 ng of recombinant human DAND5 intravitreally or similar volume of vehicle in the contralateral eye. Eyes were enucleated at P17 and processed for immunostaining. Ocular globes were initially fixed for 15 min in 4% paraformaldehyde (PFA). Retinas or choroids were collected after eyes dissection in PBS and blocked 1 h in PBS 3% BSA 0.1% Triton X-100TM. Fixation was prolonged in 1% PFA overnight for choroid extraction or eyes sectioning. Prior to sectioning, eyes were maintained in sucrose gradients (10-30%), cryo-preserved in a matrix gel and sliced in 14 μm sections on a cryostat (LeicaTM C[…]). Staining with either FITC-labeled isolectin GS 1B4 (Life technologies corporation), rhodamine phalloidin (Cedarlane Laboratories), phospho-histone H3 (Abcam), Collagen IV (Abcam) or cleaved caspase-3 (Cell Signaling) antibodies were performed on whole and/or sectioned retinas/choroids. Retinas and choroids were then mounted in fluoromount aqueous medium (Sigma-Aldrich). Quantitative analysis of tufts, vaso-obliterated or vessel areas were performed using imageJ/Swift_NVTM as previously described (1). Neovascular tuft formation was quantified by comparing the number of pixels in the affected areas with the total number of pixels in the retina. The avascular area in the retina was measured in the same way using an anti-DAND5/COCO polyclonal goat IgG antibody (AF3047, R&D systems). The effects of DAND5 on postnatal developmental angiogenesis led us to evaluate its effects on pathological angiogenesis by subjecting mouse pups to Oxygen-induced Retinopathy (OIR). Briefly, P7 pups were placed in 75% oxygen for 5 days, leading to vaso-obliteration of the retinal vascular plexus. At P12, pups were returned to room air, which stimulates retinal angiogenesis, and leads to the formation of a pathological vascular retinal network characterized by neovascular tufts (FIG. 5A).

[2] = system: retinal vascular development; format: in vivo, mouse
Experimental: Animals were anaesthetized with isofluorane. A 10 μL Hamilton syringe with a glass-pulled capillary was inserted with a 45° injection angle into the vitreous. When accessing the role of DAND5 developmentally, animals were injected at P1 (DAND5:100 ng; or PBS: 1 μl) and were euthanized at P5 to quantify vascular growth. The DAND5 used for the injection was a human recombinant DAND5/COCO biologically active fragment produced in E. coli and purified by SDS-PAGE (Arg23-Ala189 with an N-terminal Met, predicted 18.2 kDa monomer, R&D systems; 3047-CC-050). During the neovascularization phase of OIR, animals were injected at P12 (2 μL) before sacrifice at P17 for quantification of neovascularization. For adult mice and laser-induced neovascularization, intravitreal injections were performed under a surgical microscope. Mice were anaesthetized with isofluorane. Pupils were dilated using 1% tropicamide. A 33-gauge needle was inserted from the limbus with a 45° injection angle into the vitreous. The direction and location of the needle was monitored through the surgical microscope.
Ocular globes were initially fixed for 15 min in 4% paraformaldehyde (PFA). Retinas or choroids were collected after eyes dissection in PBS and blocked 1 h in PBS 3% BSA 0.1% Triton X-100™. Fixation was prolonged in 1% PFA overnight for choroid extraction or eyes sectioning. Prior to sectioning, eyes were maintained in sucrose gradients (10-30%), cryo-preserved in a matrix gel and sliced in 14 μm sections on a cryostat (Leica™ CM3050S). Staining with either FITC-labeled isolectin GS 1B4 (Life technologies corporation), rhodamine phalloidin (Cedarlane Laboratories), phospho-histone H3 (Abcam), Collagen IV (Abcam) or cleaved caspase-3 (Cell Signaling) antibodies were performed on whole and/or sectioned retinas/choroids. Retinas and choroids were then mounted in fluoromount aqueous medium (Sigma-Aldrich). Quantitative analysis of tufts, vaso-obliterated or vessel areas were performed using imageJ/Swift_NV™ as previously described (1). Neovascular tuft formation was quantified by comparing the number of pixels in the affected areas with the total number of pixels in the retina. The avascular area in the retina was measured in the same way using an anti-DAND5/COCO polyclonal goat IgG antibody (AF3047, R&D systems).
As DAND5 prevents VEGF-induced EC sprouting, proliferation and migration, we evaluated whether it could inhibit retinal vascular development. Newborn mouse pups (P1) received intravitreal injections of recombinant DAND5 (100 ng), and retinas were harvested after 4 days (P5) (FIG. 2A).
Blood vessels constrict in the course of vessel regression and EC retract, leaving behind empty BM sleeves.

[3] = 100 ng at P1, P5, compared with PBS-injected eyes

B1: DAND5: human recombinant DAND5/COCO biologically active fragment produced in E. coli, predicted 18.2 kDa monomer, R&D systems 3047-CC-050 (protein)
chain: MRPEPQSPRPQSWAAANQTWALGPGALPPLVPASALGSWKAFLGLQKARQLGMGRLQRGQDEVAAVTLPLNPQEVIQGMCKAVPFVQVFSRPGCSAIRLRNHLCFGHCSSLYIPGSDPTPLVLCNSCMPARKRWAPVVLWCLTGSSASRRRVKISTMLIEGCHCSPKA
[1]
  effect on neovascularization compared with Flt1 Fc: stronger effect on neovascularization than Flt1 Fc
[1]; 100 ng intravitreal at P12, retinas at P17
  pathological neovascularization: significantly reduced pathological neovascularization
[1]; injection at P12, P17
  revascularization of the central part of the retina: not affected
[1]; injection at P12, P17, compared to PBS
  amount and size of neovascular tufts: significantly reduced
[2]; 100 ng at P1, P5
  number of vascular branch points: reduced number of vascular branch points
[2]; [3]
  microvessel density (ratio of vessel area to vascularized area): pronounced reduction
  vessel area (area covered by vessels): pronounced reduction of vessel area
[2]; P1 injection, P5
  EC proliferation in retinal vasculature (pH3): reduced EC proliferation
  empty type IV collagen (ColIV) BM sleeves: significantly higher numbers of empty type IV collagen (ColIV) BM sleeves
  inhibition of retinal neovascularization compared with VEGF inhibitor (mouse Flt1 Fc): significantly more pronounced than that of a VEGF inhibitor (mouse Flt1 Fc)
[2]; P1 injection, P5, listed as Dand5
  empty type IV collagen (ColIV) BM sleeves: increased
[2]; intravitreal 100 ng at P1, retinas at P5
  blood vessel development: dramatic inhibition of blood vessel development
[2]; mouse, in vivo
  apoptosis in retinal vasculature (CC3): no change in apoptosis
  necroptosis in retinal vasculature (Rip3): no change in apoptosis (FIG. 11D, E) or necroptosis
  photoreceptor morphology or apoptosis: did not affect
  retinal pericyte coverage: did not affect retinal pericyte coverage
